In the domain aggregation screens of Martell et al. (2025):

Assay: soluble fraction after stress (log2 fold change); higher = more stays soluble; pooled small domains, quantitative proteomics
Settings: stress: 50 degC
Method in brief: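 The stress applied to every library was 50°C. These custom libraries of small protein domains were pooled and measured at high throughput with quantitative proteomics as the read-out. Aggregation propensity is expressed as the base-two logarithm of the fold change in how much of each protein remains soluble. The higher the value, the more of that protein stays in solution.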

| Sequence | soluble fraction (log2) |
| --- | --- |
| HMATTIEAPMPGKILDVKVNPGQAVSYGQVVLTMEAMKMETEIVAPADGTVASVLVKSGDMVETGAALVSL | 0.0867 |
| HMATTMSADWRPSEDAVGILVNAEINARFIEDAIPEFVLYWRERGAVHGAWNSKFIEHIRRQWAKFSAS | -2.2 |
| HMATTPEETILEYINKNNRISKQEIADLMGITRDGVSYHIKKLRKNGLLEWIGSPSNGHWEIIE | 0.274 |
| HMATVHPIRIQGGMTTQQGGKTVWLWVSDEGRLMTEDEIAGESGGTVSSRMVRGVRVLTGTGVIYG | -2.02 |
| HMATVIDVATTLGRPITDPDEQRQVLNWIGKTERIISARLGDLAALDRQILADVISEVVARRARN | -0.4 |
| HMATVNIGNLTFTHKGDYASGTTYAKNDVVYYSTNGNAYIAKQATQGNAPTSTAHWDVFAAGSGG | -0.161 |
| HMAVDAASSTIGKNVEVSVANEKGDYENFNGKVKSASIKDGVVYLELELKDTGEIKEVPYSSLTKIT | 0.0595 |
| HMAVDPSVLTRRERQALAWIARGLSNKEVARGLNLAESTVKVHVQSILRKLNLTSRVQAAVYAIEHGIDK | -2.79 |
| HMAVFRVGDKVKSMEGMIGEVRGINGRLIQVATPYGLRDYYPHQITKVENPLAAAPAPLNEEA | 0.269 |
| HMAVGVFQKEDGYWGYRFSIIVDGKTIARRKFTDENGSKLRTKSEAVKARAAAMVAARMERVS | -2.96 |
| HMAVIILDEPTLGLDPAVRISLWQAIQSARDSTMSAFLITTHYIKEVADYLSAVKILDHGREVASGNPSAL | -0.302 |
| HMAVKLELYRVFKEVAETGNISAAAKNLYISQSAVSQSIKQLETALQARLFARSPRGVTLTGEGQMLYQYV | -1.44 |
| HMAVKNAQIDVQQFFYSKSGEVDFGRKIKAIQSHFTPERLQSFTAAVPPSQWVSQLQVMWDSL | -1.39 |
| HMAVLGIQPVFHRSTGQTVYKSSVNTAKGRVYLGLFPTLTEALEIKLKYMQEHGHTKGITNLTNKLKEL | -1.17 |
| HMAVPFTIDVSQNGRYFIEEDNQVVEVSIGFLEDRFLRIIKSNPDIEVIIRGDAKASYESIAELLAVLQ | -1.06 |
| HMAVQPMDQVKAWLAEDNPADIKLLVPVLQKLDLLDYEQVRGEVADRAGVRKSLLDEAVKGN | 0.0999 |
| HMAVRTELLALPAGWHGDASRLSTALAALQGVREAVVIASEGVAYLKVHGHDWDRDGARELLQN | 0.00676 |
| HMAVSGRGSIIGGVATVLDDFADSGKVWLEGEAWQARSSVPLKQDQEVVVRAMDGLVLVVEPVA | -0.198 |
| HMAVSNWQKLVSSIQTQLKILALYHGPEDGIYGPNTRSAIMLYEENIGLPVTGEPSRELLAHMLDQTD | -0.869 |
| HMAVTNLTAKQISDTRWRVTWDSTLASPTYYVYRDGLLMMQTRQELYEFDAARGEQVQIDVLDDMAAAPAE | -0.741 |
| HMAWAVRAGEGVLIRAGQPGFSATTRGTALSNGAIGEGVRVRNLGSGKEIQAWVVDKGEVETR | 0.0168 |
| HMAWIAVATKEDYSEYEWKELSPTTDWSTQTFDLGDLAGKTIYAVKMFFDHDTDVKDYKFNLGQLSITSN | -0.266 |
| HMAYRLDVRNQTKGTYLVIQKKYWDKEKKQSRTKHHMSLGYVHDLQKLYSDPITHYKEVINQMNAEEKG | -1.54 |
| HMAYSEEDRRRVREELLTTALKLMSTQGIQHTTVEQVYRSVGISRSFFYAFFPTKEDLIVEAL | 0.117 |
| HMDAAANTLRILKALSESPMSADRLAELLMEEGSGRNPRTIRRYIRALREAGFGVEHREGRYVL | -0.381 |

| Sequence | soluble fraction (log2) |
| --- | --- |
| HMDAAEVEATARAMLRRSALNLLAQREQTAFELKQKLSRRFPEQAALLDEVIERLQEQGLQDDTR | -0.102 |
| HMDAEEISILLEKAVLQLPEKQKMIFQLKYFEDLSYKDIQIITGGSIGGLKANYHHAVTKIEKLLS | -0.0727 |
| HMDAEETLGARLRRLRQARGLSLAGLAQAAGLSKPSIWAWENGTTAPRRTSLLALARALDVPEQQLTGV | -0.358 |
| HMDAEKHIVTPEAGLRLDRALTDALPNLSRSRVKQLINEGLVTTENKTITAPSYRVKYGDSFEISIPPPT | -0.0636 |
| HMDAIIVPSVLKMKPFEAEEKLSALGLRMKINDTVYIDNMKPGVIVEQSPTAEEDVKTDRVIYVIVNA | -0.404 |
| HMDAKQLQSLKNNNEQLAGFIVRLTNFYEGLSPDIDAELSKLRSHLSGKVDYTLATVSINKINQLFMLEP | -2.6 |
| HMDALIWYVSRGQQKFGPFNYFGVLKALQDKSVFEFDYVWKEGTENWVRLAEHELFSQEKVRELLA | -0.203 |
| HMDAMLGEALRLIRVYHDLKQKQAAERLEVSTSYLSEIERGLKTPTLDIIQRYATVFDMPVSSIMFFSENL | -3.03 |
| HMDAMLSEQLREKRGELLIEVDAIAGNALRWATLSAEQQDAWAVYRQALLDVPQQAGFPNDVVWPINPN | -0.352 |
| HMDAPKPDIGMSTDQIRSSLGQPGSQTRLETGGGRIYELWIYLYPDGKELQIYFDNAKVVKMEALS | -0.613 |
| HMDAPLIIAETRVDVPDATVSDAVMMLDLRNTNALLFKNSGSGVLNMVYRRGDGTIGWGEPQ | -0.0172 |
| HMDASKVKIEDLGLSTRTENALVAASIRTAGGLARKSEMDLLSTDGLGEKGITEIKKALSDLGLELK | 0.285 |
| HMDAVSTMIENLRVKTGKSLADWVGLAKGSGADKHGAMVGWLKSEHGLTHGYANLIAHETFRSAA | 0.0392 |
| HMDAVTPVLSRIRDARFKRMVLPGDEIEISVTLIDTIGKFFNLSGQIRNKDKISLTVNFALALV | -0.0104 |
| HMDDADPYEILGVERDAEDAEIKRAYHDLIRENHPDRLMAEGLPQEMIDVANEKVAFINDAYDRIEKLRGM | -0.241 |
| HMDDENKIEVMINEEKVQLTGKDKYVFVDIFNYIDMDLTRIHGNLVLKLNGENASHNSLLKSGDKIEARWE | -0.181 |
| HMDDERDRLVQQAMEGLSPALREILLLAYFQRMPYNQIAESLRIPLGTVKSRLHAAVAAFAKRWQELNRS | -0.693 |
| HMDDFNLSPREKDVLGHLVKGNSYKMIADELQIGYDTVHSHIKKIYKKLHVNSMSEAVAKALKNKL | 0.543 |
| HMDDGARQLVDQLNRLIANPAVSARIIHGYLILEGRVESEWEKTRTLLLAQVAGLPVIDLITVS | -1.85 |
| HMDDGLTRLTPRENEVLELMAQGRSNTAIAERLVLSYGAVEKNVSSIFTKLDLPLDAGDHRRVLAVLRRLN | -0.688 |
| HMDDGNHTEYIVLEKAKFYDEAGEYEEGRDLVLSFDKYQDNWKLVYTLGVFNKKLNNLEEARKYYKQALE | -0.0519 |
| HMDDHKQHLIDFYHSRKRMPTYTEMMALFGYKSKNAVARLVEKMIDAGIVTKDKLGKLLPTTLFDSVPL | 0.0577 |
| HMDDHLRLSDNERISAMSALATHFTEGRLDTSEFDERTLAASQAKSRGDLRPLFDDLPGQLPAALSP | 0.0376 |
| HMDDKLKKLEEVFEMQEGTLTPDMRLDELEEWDSMTRLSLIVMMEDDYGKKVKRSEVMNYTTVQDIVDSME | -0.5 |
| HMDDLSPEENKVIGAQVREELARRRLSRQHLADKAKISLSTLEKALTGTRPFTLASVVRIEEALQLQLRK | -0.484 |

| Sequence | soluble fraction (log2) |
| --- | --- |
| HMDDPEISQEQRQQLFRTAKEHFGASGNDVLKEILADHGRDSTVKMPVSVFAEIMGDLLKRALD | 0.432 |
| HMDDPQAELLARAVRRVALAAAERTRRNEYGGVYLGLFRQFGISSYRRTPPARLHEALEWLERWRGDLM | -0.0675 |
| HMDDTVILPIQINGKRRAEISVPKAMPASEVEKLALANEDVLRFLAGQPIKKLIVVPGRIINVV | 0.179 |
| HMDDVGERIRKIREEKNLSLDEISKMTGFDVEFLAKIENKERQPQLGTVIKLSKALDSAFGRL | 0.221 |
| HMDDVGYLRKRLQQALAQLSDDLRNTYTLFQIGKQSIKQIAAETGASESLVKVRIHRAKQKLQELLADLQ | -0.987 |
| HMDEDLQEALRKLNPIQANERKLLLKMLEQHRWNVSSVAKAFDVSRNTLYRRLHKLHIPLSNPSE | -0.417 |
| HMDEEAIELTQEVMKLPPKQREVILLYYYHGLTGKEIAKALGISGAAVSKRLKQAKNQLHFALK | -0.0921 |
| HMDEEVLVVQEGGERLDVFVAANAEGITRSFVQNLIKKGDVTVDGAPRKANYRLRSGQVVRFSLPEP | -0.328 |
| HMDEFEEGVITYFNSEKGFGFIRESKTKQSVFVHSKQLSSPVQLNDKVKFIVNKGLKGLEATEVSVI | -0.235 |
| HMDEFQLTPREQEILGLLVKGYTYKRIASELNLSYATVNRHVSNVYVKLRVHSVNEAVALAVRKGL | -0.997 |
| HMDEKLAHKLVSDFRQAAASLERFPFRNPVLRSEVFTVEKYRKLVFDKYHILLYQVKDQVVYVEYVIDGRQ | -0.75 |
| HMDEKVTIPSVSGLLLSEAKTKLVDAGLTVETVYDDESKEAKDTVLSQSPLQYGKVDKGTVVTLTVSSGKG | -0.043 |
| HMDELPKDILRSFGLPDKPWAMELLRNLRRDGFALDGETARAYAEMAAMKPPRTDARQWMTAADVAYRRG | -0.151 |
| HMDEMPVEFVKISIKAGHPWENRKIKDLASLPDLLLVLILRGEERIIPNGNTVVLAGDKIVLSALSPE | -0.936 |
| HMDENILKTRIEDLDLSVRTIKALTGASIRTVSGLARKKESDLLEISGLGDKGIQEIKRALGSLGITL | 0.0868 |
| HMDENTEQESQTVVVPDVTGKSLSEAASILREAGLDYLAEQTGTVVTKQMPLPDAEVLINTTVLLYTDSE | 0.0118 |
| HMDEPSITYGKVKVQTSLNVRQGPGTQYARIGSLGPNVRIQILGQEGQWYKIKYGNLQGYVHSDYVELEK | 0.0784 |
| HMDEQKNREIALIENIQREDLNPYEKALGIRNLMDKYGLTQEEVSKRIGKSRSAVSNTVRILNLAPDVL | 0.0391 |
| HMDEQLAWLYRKINAFSEIDKALILLYLEDKKYDEIAETLGISSVNARVKMNRIKKRLKEMINDR | -2.53 |
| HMDEQVETLKNLISELPKEQLEVLVMRHYEDLSFKEISEKTGVSINTALGRMRYALINIRKLMKENN | -0.223 |
| HMDESLIEEAKAMILQMKIEGSVRVRSNGLLEFRNPLFGSVYGRSVEELQEKLNKKVREQKSRI | -0.0459 |
| HMDEVPMPPEYQYLRVGSRVHHATFGWGKVTRLSQPWPQTRAEVFFENIGPKKLVLAHAHLTMD | -0.727 |
| HMDEYTAVDSRLDLELAMKRLKPEEAEVLRLVFDYGLPQRAIAERLGVSQMSVSRMQRRAIGKLKRWLSDN | -1.08 |
| HMDFKKKIIESWADIAETLRGLTVDSNISDWTTKQKNAYETLADKAELAGLSIADLNSILVELGYM | -0.0868 |
| HMDFNDPTMEKSLVELPAMSNSTLRDLSENNIKKLEELAEMSVGELMDIASKISESDASALIMEARKPWF | -0.137 |
